In test [1] the target is human cell-derived natural IL-18 (human) (UniProt Q14116). Kind of test: cell-based or functional assay.
For test [2], the target named is chymase cleavage-type IL-18 (UniProt Q14116). Briefly: cell-based or functional assay.
Test [3] deals with T1, human IL-18 (MBL Medical & Biological Laboratories, Co., Ltd.) (human, UniProt Q14116 37-193, biotinylated (Biotin-PEAC5-maleimide or Biotin-AC5 Sulfo-OSu) in the streptavidin plate ELISAs and the panning; not labelled in the receptor binding and KG-1 assays).
T1 construct: Bought protein; also called human interleukin-18; biotinylated human IL-18
T1 sequence (looked up): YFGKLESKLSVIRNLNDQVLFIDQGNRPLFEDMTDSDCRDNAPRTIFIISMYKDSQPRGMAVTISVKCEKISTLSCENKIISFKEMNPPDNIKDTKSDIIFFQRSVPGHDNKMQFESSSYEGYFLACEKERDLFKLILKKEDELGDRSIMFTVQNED
Kind of test: ELISA: biotinylated human IL-18 on streptavidin plate, anti-mouse IgG/HRP. How it is done: The biotinylated human IL-18 was diluted to 1 μg/mL with PBS (Sigma-Aldrich Corp.), added at 100 μL/well to Streptavidin plates (Nunc), and incubated at room temperature for 1 hour to immobilize the human IL-18. The plates were washed with PB ST, and human IL-18BPa-hFc (R&D Systems, Inc.) diluted to 10 μg/mL with 1% BSA-PBS was added at 100 μL/well to the plates and incubated at 37° C. for 1 hour to form a complex of IL-18 and IL-18BP. The plates were washed with PBST, and 4A6D scFv-mFc was added at 100 μL/well to the plates and incubated at 37° C. After 1 hour, the plates were washed with PBST, and a detection antibody anti-mouse IgG/HRP (Invitrogen Corp.) was added at 100 μL/well to the plates and incubated at 37° C. After 1 hour, the plates were washed with PBST, and TMB (Sigma-Aldrich Corp.) was added at 100 μL/well to the plates to develop color. After 30 minutes, the reaction was terminated with 1 M sulfuric acid, and the color values (O.D. 450 nm/650 nm) were measured using a microplate reader (Molecular Devices, Inc.).
For orientation: An ELISA detects its analyte on a solid surface through an enzyme-linked reagent.

Test [4] deals with T1, human IL-18 (MBL Medical & Biological …). Briefly: panning of an scFv phage library on biotinylated human IL-18 on streptavidin magnetic beads.
The target in test [5] is T2, human IL-33 (MBL Medical & Biological Laboratories, Co., Ltd.) (human, UniProt O95760 112-270, limits assumed, biotinylated (Biotin-PEAC5-maleimide or Biotin-AC5 Sulfo-OSu)).
T2 construct: also called biotinylated human IL-33
T2 sequence (looked up): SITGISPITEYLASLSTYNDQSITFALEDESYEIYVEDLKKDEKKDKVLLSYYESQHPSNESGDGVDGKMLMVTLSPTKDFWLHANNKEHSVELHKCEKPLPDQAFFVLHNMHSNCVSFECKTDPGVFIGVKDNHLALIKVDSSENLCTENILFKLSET
Briefly: ELISA on biotinylated cytokine on streptavidin plates.

Test [6] has as its target T3, human IL-1β (Funakoshi Corp.) (human, UniProt P01584 117-269, biotinylated (Biotin-PEAC5-maleimide or Biotin-AC5 Sulfo-OSu)).
T3 construct: also called biotinylated human IL-1β
Described as above.

In test [7] the target is T4, mouse IL-18 (MBL Medical & Biological Laboratories, Co., Ltd.) (mouse, UniProt P70380 36-192, biotinylated (Biotin-PEAC5-maleimide or Biotin-AC5 Sulfo-OSu)).
T4 construct: also called biotinylated mouse IL-18
T4 sequence (looked up): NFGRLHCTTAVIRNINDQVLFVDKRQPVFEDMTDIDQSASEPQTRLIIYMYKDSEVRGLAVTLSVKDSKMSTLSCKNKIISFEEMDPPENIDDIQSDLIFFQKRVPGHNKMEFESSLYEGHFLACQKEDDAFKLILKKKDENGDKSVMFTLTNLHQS
The description is as above.

Test [8] addresses T5, rat IL-18 (Acris Antibodies GmbH) (rat, UniProt P97636 37-194, limits assumed, biotinylated (Biotin-PEAC5-maleimide or Biotin-AC5 Sulfo-OSu)).
T5 construct: also called biotinylated rat IL-18
T5 sequence (looked up): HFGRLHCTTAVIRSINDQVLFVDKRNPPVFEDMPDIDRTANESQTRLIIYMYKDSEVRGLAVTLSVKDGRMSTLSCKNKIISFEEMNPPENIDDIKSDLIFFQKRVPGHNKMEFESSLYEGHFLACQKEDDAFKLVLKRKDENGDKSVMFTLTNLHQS
Described as above.

Test [9] deals with T1, human IL-18 (MBL Medical & Biological …). Kind of test: cell-based or functional assay.
For test [10] the target is unchanged. Kind of test: ELISA, biotinylated human IL-18 on streptavidin plate, HRP detection antibody, O.D. 450nm/650nm. The method, then: The binding activity of the obtained scFv phages, scFv, and IgG prepared by a standard method (conventional method) was evaluated by ELISA. The biotinylated human IL-18 or the biotinylated mouse IL-18 was diluted to 1 μg/mL with PBS (Sigma-Aldrich Corp.), added at 100 μL/well to Streptavidin plates (Nunc), and incubated at room temperature for 2 hours to immobilize the IL-18. After the immobilization, the plates were washed with PBST, and each obtained scFv phage, scFv, or IgG was added at 100 μL/well to the plates and incubated at 37° C. After 1 hour, the plates were washed with PBST, and a detection antibody anti-M13/HRP (GE Healthcare Japan Corp.), anti-His tag/HRP (Bethyl Laboratories, Inc.), anti-V5 tag/HRP (Bethyl Laboratories, Inc.), anti-mouse IgG/HRP (Invitrogen Corp.), or anti-hFc/HRP (Cosmo Bio Co., Ltd., The binding site) was added at 100 μL/well to the plates and incubated at 37° C. After 1 hour, the plates were washed with PBST, and TMB (Sigma-Aldrich Corp.) was added at 100 μL/well to the plates to develop color. After 30 minutes, the reaction was terminated with 2 N sulfuric acid, and the color values (O.D. 450 nm/650 nm) were measured using a microplate reader (Molecular Devices, Inc.).

Residue numbers refer to the chain shown, from its start.

For orientation: EC50 (read off the curve) means the concentration needed to bring the measured effect to its halfway point. Read a high EC50 (read off the curve) as a less potent agent.

In the case of Negative control antibody, the Amount of IFN-γ produced in test [1] turned out to be 134 pg/mL; in test [2], 109 pg/mL.

B1: 4A6D scFv-mFc (Fc fusion)
scFv: EVQLVESGGGLVQPGGSMRLSCTASGFTFDEYAMSWVRQAPGKGLEWVSGISTGGGGTYYADSVEGRFTISRDNSKNTLYLQMNSLRAEDTAVYYCAKPWLSGSRSGDFWGQGTLVTVSSASTGGGGSGGGGSGGGGSQSALTQPASVSGSPGQSITISCTGTSSDVGGYNYVSWYQQHPGKAPKLLIYEVSHRPSGVSDRFSGSKSGNTASLTISGLQAEDEADYYCSSFTSSSSLYVFGTGTKLTVL
notes: not shown: mouse Fc (mFc) and any junction to it
On to B1, for which the “EC50 (read off the curve)” value in test [3] was about 0.008 µg/mL.

B2: 4A6D scFv phage (scFv)
scFv: B1 scFv
modifications: displayed on phage
notes: the phage coat fusion is not described; not shown: phage coat protein fusion (display partner) and any tags; not described
B2: the binding result in test [4] was “binds”.

B3: 4A6S scFv phage (scFv)
scFv: B1 scFv with D30S
modifications: displayed on phage
notes: as for B2
As to B3, the binding result in test [4] is given as “binds”.

B4: IgG molecule-type 4A6S (antibody, V domains shown)
VH: EVQLVESGGGLVQPGGSMRLSCTASGFTFSEYAMSWVRQAPGKGLEWVSGISTGGGGTYYADSVEGRFTISRDNSKNTLYLQMNSLRAEDTAVYYCAKPWLSGSRSGDFWGQGTLVTVSS
VL: QSALTQPASVSGSPGQSITISCTGTSSDVGGYNYVSWYQQHPGKAPKLLIYEVSHRPSGVSDRFSGSKSGNTASLTISGLQAEDEADYYCSSFTSSSSLYVFGTGTKLTVL
notes: IgG prepared by a standard method; also called human anti-human IL-18 antibody 4A6S
Take B4: the binding result in test [5], in [6], in [7] and in test [8] was “no binding” throughout. Also, the “Neutralizing ability (IC50, nM)” value in test [9] was determined as 0.013 nM. Also, the “EC50 (read off the curve)” value in [10] is about 0.02 µg/mL.

(Values after patent US20190077858A1 (KM BIOLOGICS, published 2019).)
